The target in experiment [1] is T1, combination design 402 G-CSFR(Ig-CRH)E with N-terminal hexahistidine tag (human, UniProt Q99062 25-331).
T1 chain: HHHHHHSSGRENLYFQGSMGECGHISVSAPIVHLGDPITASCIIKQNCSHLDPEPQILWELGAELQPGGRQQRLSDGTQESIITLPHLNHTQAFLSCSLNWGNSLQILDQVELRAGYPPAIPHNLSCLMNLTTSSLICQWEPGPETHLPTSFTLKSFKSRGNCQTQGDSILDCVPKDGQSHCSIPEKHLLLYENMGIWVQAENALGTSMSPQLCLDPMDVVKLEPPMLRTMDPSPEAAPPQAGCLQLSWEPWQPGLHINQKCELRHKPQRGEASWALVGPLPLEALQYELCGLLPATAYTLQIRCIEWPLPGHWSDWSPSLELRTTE
In words: co-expression in insect cells, pulldown via the Twin Strep tag on G-CSF, reducing SDS-PAGE; G-CSFR(Ig-CRH) format. The method, then: (§1) The P2 viral stocks were tested for protein expression in small-scale. P2 virus was used to co-infect G-CSFE mutants with their corresponding G-CSFRE mutant in Trichoplusia ni (Tni) cells in 12-well plates. Separate co-infections for each design mutant were performed using the P2 stocks of G-CSFWT and GCSFR(CRH)WT, as well as for G-CSFE mutants alone. For each reaction, 2 mL of healthy log-phase Tni at 2×10⁶ cells ml⁻¹ was inoculated with 20 μl P2 virus. Plates were incubated at 27° C. for approximately 70 h with shaking at 135 rpm. […] Briefly, to each 1.8 mL reaction supernatant 0.2 mL 10× HEPES Buffered Saline (HBS: 20 mM HEPES pH8, 150 mM NaCl) was added to 1×, 20 μl bed volume (b.v) of purification beads added and reactions incubated for 30 minutes with end-over-end mixing at 24° C. An additional 20 μl b.v of purification beads was added followed by a second 30 minute incubation. Beads were pelleted by centrifugation at 2200 rpm for 3 minutes, supernatant was removed and the beads washed with 1× HBS buffer.
(§2) The co-expression assay with pulldown through the cytokine TST tag was performed as described above in Example 2, with the difference that the receptor constructs contained the Ig and CRH domains (residues 2-308, Table 1) referred to as G-CSFR(Ig-CRH).

Experiment [2] has as its target T2, combination design 401 G-CSFR(Ig-CRH)E with N-terminal hexahistidine tag (human, UniProt Q99062 25-331).
T2 chain: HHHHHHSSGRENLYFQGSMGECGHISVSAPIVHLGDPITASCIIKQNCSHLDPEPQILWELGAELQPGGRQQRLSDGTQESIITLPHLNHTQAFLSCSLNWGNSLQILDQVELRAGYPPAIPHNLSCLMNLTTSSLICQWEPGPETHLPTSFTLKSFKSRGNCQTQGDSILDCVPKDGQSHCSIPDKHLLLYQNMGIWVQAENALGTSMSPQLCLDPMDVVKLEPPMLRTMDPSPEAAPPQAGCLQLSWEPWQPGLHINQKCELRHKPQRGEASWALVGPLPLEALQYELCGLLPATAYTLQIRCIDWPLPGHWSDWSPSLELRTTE
The experiment is described as above. The method, then:
as §1, §2

In experiment [3] the target is T3, site II design 34 G-CSFR(CRH)E with N-terminal hexahistidine tag (human, UniProt Q99062 120-331).
T3 construct: also called design #34 G-CSFRE
T3 chain: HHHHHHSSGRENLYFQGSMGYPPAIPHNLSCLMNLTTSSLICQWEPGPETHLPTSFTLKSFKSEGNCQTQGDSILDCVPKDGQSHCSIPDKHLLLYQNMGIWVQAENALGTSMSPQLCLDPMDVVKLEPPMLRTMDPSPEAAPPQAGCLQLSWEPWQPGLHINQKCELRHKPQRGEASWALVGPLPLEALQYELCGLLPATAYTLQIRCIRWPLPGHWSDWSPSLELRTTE
In words: WT G-CSF co-expressed with variant G-CSFR(CRH) in insect cells, pulldown via the Twin Strep tag on G-CSF, reducing SDS-PAGE. The method, then:
as §1

Experiment [4] addresses T4, site II design 30 G-CSFR(CRH)E with N-terminal hexahistidine tag (human, UniProt Q99062 120-331).
T4 construct: also called design #30 G-CSFRE
T4 chain: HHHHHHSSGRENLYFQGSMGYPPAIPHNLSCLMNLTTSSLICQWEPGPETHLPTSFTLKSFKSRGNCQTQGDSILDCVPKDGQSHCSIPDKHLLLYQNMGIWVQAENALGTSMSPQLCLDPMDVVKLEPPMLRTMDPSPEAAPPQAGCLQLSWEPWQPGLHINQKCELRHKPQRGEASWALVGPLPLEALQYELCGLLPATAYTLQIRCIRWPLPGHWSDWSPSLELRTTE
Described as above. The method, then: as §1

In experiment [5] the target is T5, site II design 35 G-CSFR(CRH)E with N-terminal hexahistidine tag (human).
T5 construct: also called design #35 G-CSFRE
T5 chain: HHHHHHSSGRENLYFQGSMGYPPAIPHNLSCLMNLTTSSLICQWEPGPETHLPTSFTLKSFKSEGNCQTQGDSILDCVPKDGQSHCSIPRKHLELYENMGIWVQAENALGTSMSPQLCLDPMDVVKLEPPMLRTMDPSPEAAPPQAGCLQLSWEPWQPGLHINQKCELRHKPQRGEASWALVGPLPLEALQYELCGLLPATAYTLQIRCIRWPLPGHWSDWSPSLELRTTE
Described as above. The method, then:
as §1

Experiment [6] deals with T6, site II design 15 G-CSFR(CRH)E with N-terminal hexahistidine tag (human).
T6 construct: also called design #15 G-CSFRE
T6 chain: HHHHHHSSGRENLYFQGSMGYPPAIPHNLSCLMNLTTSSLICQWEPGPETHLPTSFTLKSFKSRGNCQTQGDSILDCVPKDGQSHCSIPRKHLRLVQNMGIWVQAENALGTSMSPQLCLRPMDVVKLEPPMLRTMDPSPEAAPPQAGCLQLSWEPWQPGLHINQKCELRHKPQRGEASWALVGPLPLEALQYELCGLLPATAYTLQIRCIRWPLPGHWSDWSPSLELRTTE
The experiment is described as above. The method, then:
as §1

Experiment [7] concerns the target T7, design 300 G-CSFR(Ig-CRH)E, tag cleaved (human, UniProt Q99062 26-331).
T7 chain: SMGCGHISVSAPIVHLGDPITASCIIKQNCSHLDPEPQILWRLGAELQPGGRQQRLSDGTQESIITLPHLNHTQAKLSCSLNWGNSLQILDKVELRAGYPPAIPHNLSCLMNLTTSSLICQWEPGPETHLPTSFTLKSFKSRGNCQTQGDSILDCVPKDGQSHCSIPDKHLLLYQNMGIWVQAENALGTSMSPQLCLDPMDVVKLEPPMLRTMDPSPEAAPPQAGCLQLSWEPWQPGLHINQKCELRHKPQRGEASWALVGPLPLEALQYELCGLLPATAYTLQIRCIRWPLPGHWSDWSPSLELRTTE
In words: SPR, G-CSFRE amine-coupled, G-CSFE injected, single-cycle kinetics. The method, then:
(§3) The SPR binding assays were carried out on a Biacore T200 instrument (GE Healthcare, Mississauga, ON, Canada) with PBS-T (PBS+0.05% (v/v) Tween 20) running buffer at a temperature of 25° C. CM5 Series S sensor chip, Biacore amine coupling kit (NHS, EDC and 1 M ethanolamine), and 10 mM sodium acetate buffers were all purchased from GE Healthcare. PBS running buffer with 0.05% Tween20 (PBS-T) was purchased from Teknova Inc. (Hollister, CA). Designs were assessed in three different immobilization orientations.
(§4) To determine binding affinity of G-CSFE to G-CSFRE the G-CSFRE mutant was captured by standard amine coupling as described by the manufacturer (GE LifeSciences). Briefly, immediately after EDC/NHS activation, a 5 μg/mL solution of G-CSFRE in 10 mM NaOAc, pH 5.0, was injected at a flow rate of 5 μL/min until a receptor density of ˜700-900 RU was reached. The remaining active groups were quenched by a 420 s injection of 1 M ethanolamine hydrochloride-NaOH pH 8.5 at 10 μL/min. Using single-cycle kinetics, six concentrations of a two-fold dilution series of the corresponding G-CSFE mutant starting at 200 nM with a blank buffer control were sequentially injected at 25 μL/min for 300 s with a 1800 s dissociation phase, resulting in a set of sensorgrams with a buffer blank reference. The same sample titration was also performed on a reference cell with no variants captured. The chip was regenerated to prepare for the next injection cycle by one pulse of 10 mM glycine/HCl, pH 2.0, for 30 s at 30 μL/min.
(§5) Double-referenced sensorgrams from duplicate or triplicate repeat injections were analyzed using Biacore™ T200 Evaluation Software v3.0 and fit to the 1:1 Langmuir binding model.
In general terms: SPR reads the build-up and loss of mass on a sensor chip optically.

In experiment [8] the target is T8, WT G-CSFR(Ig-CRH), purified, tag cleaved (human, UniProt Q99062 26-331).
T8 construct: also called G-CSFRWT; wild type G-CSFR(Ig-CRH)
T8 chain: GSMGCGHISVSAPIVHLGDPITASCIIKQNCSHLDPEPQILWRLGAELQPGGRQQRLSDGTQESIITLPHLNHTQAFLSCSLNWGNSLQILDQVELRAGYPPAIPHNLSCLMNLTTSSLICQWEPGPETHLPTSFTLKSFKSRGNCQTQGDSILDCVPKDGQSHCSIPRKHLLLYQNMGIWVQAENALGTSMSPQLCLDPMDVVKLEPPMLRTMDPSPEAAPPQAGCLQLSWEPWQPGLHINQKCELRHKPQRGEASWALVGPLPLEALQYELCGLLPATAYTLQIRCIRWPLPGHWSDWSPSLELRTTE
Kind of experiment: SPR (Biacore T200), WT receptor amine-coupled, cytokine injected. The method, then: as §3
To assess binding affinity of G-CSFE to G-CSFRWT, recombinant G-CSFRWT purified as described in Example 5 was captured as described above in this Example. Using single-cycle kinetics, six concentrations of a two-fold dilution series of each G-CSFE mutant starting at […] with a blank buffer control were sequentially injected as described above. The same sample titration was also performed on a reference cell with no variants captured. The G-CSFRWT surface was regenerated as described above.
as §5

Experiment [9] has as its target T9, design 303 G-CSFR(Ig-CRH)E, tag cleaved (human, UniProt Q99062 26-331).
T9 chain: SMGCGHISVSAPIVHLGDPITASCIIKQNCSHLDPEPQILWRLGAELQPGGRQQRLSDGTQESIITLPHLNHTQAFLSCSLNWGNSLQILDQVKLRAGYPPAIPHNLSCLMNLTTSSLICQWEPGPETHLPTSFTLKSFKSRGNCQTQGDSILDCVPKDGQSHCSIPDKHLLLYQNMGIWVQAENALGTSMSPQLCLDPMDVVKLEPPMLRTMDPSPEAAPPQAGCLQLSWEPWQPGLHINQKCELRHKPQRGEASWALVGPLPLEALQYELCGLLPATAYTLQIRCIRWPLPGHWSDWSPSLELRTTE
In words: SPR, G-CSFRE amine-coupled, G-CSFE injected; steady state derived affinity constant. The method, then: as §4, §5
Kinetic-derived affinity constants (KD) where obtained by fitting the association and dissociation phases of the curves. The KD of WT G-CSF for WT G-CSFR(Ig-CRH) ranged between 1.8-2.5E-9. For the cases in which the kinetic parameters could not be fit an attempt was made to derive a steady state affinity constant. In those cases, the KD fold change was calculated from the steady state derived KD for the WT G-CSF:WT G-CSFR(Ig-CRH) pair and is indicated in Table 7.

B1: WT G-CSF with C-terminal Twin Strep tag (ligand)
chain: not shown
notes: construct of the insect-cell co-expression pulldown; also called G-CSFWT
For the molecule B1, the binding result in experiment [1], in experiment [2], in experiment [3], in [4], in experiment [5] and in [6] was “no binding” throughout.

B2: design 300 G-CSFE, tag cleaved (ligand)
chain: TPLGPASSLPQSFLLKCLEQVRKIQGDGAALQEKLCATYDDCHPEELVLLGHSLGIPWAPLSSCPSQALQLAGCLSQLHSGLFLYQGLLQALEGISPELGPTLDTLQKDVARFATTIWQQMEELGMAPALQPTQGAMPAFASAFQRRAGGVLVASHLQSFLEVSYRVLRHLAQAAAENLYFQ
notes: also called design 300 G-CSFE mutant
With B2, in [7], the “KD fold change (against WT:WT)” value amounted to 194 fold. In experiment [8], the binding result is given as “no binding”.

B3: design 303 G-CSFE, tag cleaved (ligand)
chain: TPLGPASSLPQSFLLKCLEQVRKIQGDGAALQEKLCATYKLCHPEELVLLGHSLGIPWAPLSSCPSQALQLAGCLSQLHSGLFLYQGLLQALEGISPELGPTLDTLQKDVARFATTIWQQMEELGMAPALQPTQGAMPAFASAFQREAGGVLVASHLQSFLEVSYRVLRHLAQAAAENLYFQ
notes: also called design 303 G-CSFE mutant
As for B3, the “KD fold change (against WT:WT)” value in [9] was found to be 2.2 fold. The binding result in experiment [8] is given as “no binding”.
